From patent US20250026833A1 (WUXI BIOLOGICS IRELAND, published 2025)

Biological target: T1, hPD-L1-ECD.mFc, W315-hPro1.ECD.mFc (in house) (human, UniProt Q9NZQ7 19-238)
T1 construct: extracellular domain; also called Human PD-L1, mFc tag; not shown: C-terminal mouse Fc
Assay: dual binding (bridging) ELISA: plate coated with hVEGF.his, titrated antibody, then hPD-L1-ECD.mFc at 1 ug/ml, HRP goat anti-mouse IgG

T1 sequence (Q9NZQ7 19-238): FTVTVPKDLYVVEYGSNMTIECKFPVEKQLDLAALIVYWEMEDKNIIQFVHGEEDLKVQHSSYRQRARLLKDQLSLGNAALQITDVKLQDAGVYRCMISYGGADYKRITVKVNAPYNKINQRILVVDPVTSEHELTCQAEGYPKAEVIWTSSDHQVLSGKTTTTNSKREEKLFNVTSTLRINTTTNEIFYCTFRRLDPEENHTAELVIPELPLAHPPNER

B1: Avastin (bevacizumab) (antibody, human IgG1, V domains shown)
VH: EVQLVESGGGLVQPGGSLRLSCAASGYTFTNYGMNWVRQAPGKGLEWVGWINTYTGEPTYAADFKRRFTFSLDTSKSTAYLQMNSLRAEDTAVYYCAKYPHYYGSSHWYFDVWGQGTLVTVSS
VL: DIQMTQSPSSLSASVGDRVTITCSASQDISNYLNWYQQKPGKAPKVLIYFTSSLHSGVPSRFSGSGSGTDFTLTISSLQPEDFATYYCQQYSTVPWTFGQGTKVEIK
notes: also called parental anti-VEGF antibody
B1: no binding (tested: 100 nM).
